Results on five molecules are retold here after article PMC6078178 (Nature, 2017).

The chains are these.
B2: Rpb4 (Pol II stalk subunit) (natural protein, S. cerevisiae)
chain: MNVSTSTFQTRRRRLKKVEEEENAATLQLGQEFQLKQINHQGEEEELIALNLSEARLVIKEALVERRRAFKRSQKKHKKKHLKHENANDETTAVEDEDDDLDEDDVNADDDDFMHSETREKELESIDVLLEQTTGGNNKDLKNTMQYLTNFSRFRDQETVGAVIQLLKSTGLHPFEVAQLGSLACDTADEAKTLIPSLNNKISDDELERILKELSNLETLY
B3: Tfb3 (natural protein, S. cerevisiae, UniProt Q03290 1-321, looked up)
chain: MLMDEYEENKDMCPICKTDRYLSPDVKFLVNPECYHRICESCVDRIFSLGPAQCPYKGCDKILRKNKFKTQIFDDVEVEKEVDIRKRVFNVFNKTIDDFNGDLVEYNKYLEEVEDIIYKLDHGIDVAKTEEKLRTYEELNKQLIMNNLERSRTEIESFEQRQKFEKEMKLKKRLLERQIEEEERMNKEWTKKEIVNRLSTTTQDINETIEGVKNTVKLKKSSARRKLEELNRVLKNNPYFNSNVNVQNSRLKDAVPFTPFNGDREAHPRFTLKGSVYNDPFIKDLEHRKEFIASGFNTNYAYERVLTEAFMGLGCVISEEL

The assay “Tfb3” has as its target B3. Kind of assay: cryo-EM structure.
The target of another assay is T1, Med8 (S. cerevisiae, UniProt P38304 1-223).
T1 sequence (looked up): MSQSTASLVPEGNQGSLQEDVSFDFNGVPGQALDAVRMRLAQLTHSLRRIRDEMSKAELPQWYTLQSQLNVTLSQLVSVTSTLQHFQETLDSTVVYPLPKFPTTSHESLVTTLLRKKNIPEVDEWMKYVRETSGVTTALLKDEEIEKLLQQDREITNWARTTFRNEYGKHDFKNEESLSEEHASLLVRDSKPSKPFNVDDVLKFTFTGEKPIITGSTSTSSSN
As to the kind of experiment: cryo-EM structure.

In the next assay the target is T2, TFIIE (Tfa1 and Tfa2) (S. cerevisiae, UniProt P36100 1-482; P36145 1-328).
T2 sequence (looked up) 1: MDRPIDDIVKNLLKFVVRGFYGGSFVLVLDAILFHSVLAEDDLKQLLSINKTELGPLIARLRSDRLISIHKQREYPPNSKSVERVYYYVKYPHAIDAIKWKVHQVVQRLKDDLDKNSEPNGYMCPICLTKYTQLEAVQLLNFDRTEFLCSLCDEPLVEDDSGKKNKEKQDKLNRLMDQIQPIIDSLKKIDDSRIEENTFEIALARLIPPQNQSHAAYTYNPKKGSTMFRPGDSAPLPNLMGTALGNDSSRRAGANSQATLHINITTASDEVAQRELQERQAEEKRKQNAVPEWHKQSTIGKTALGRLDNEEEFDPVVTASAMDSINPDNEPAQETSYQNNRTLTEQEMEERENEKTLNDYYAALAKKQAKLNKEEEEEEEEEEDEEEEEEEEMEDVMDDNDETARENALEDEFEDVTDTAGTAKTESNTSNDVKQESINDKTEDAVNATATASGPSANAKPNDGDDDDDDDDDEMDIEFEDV
T2 sequence (looked up) 2: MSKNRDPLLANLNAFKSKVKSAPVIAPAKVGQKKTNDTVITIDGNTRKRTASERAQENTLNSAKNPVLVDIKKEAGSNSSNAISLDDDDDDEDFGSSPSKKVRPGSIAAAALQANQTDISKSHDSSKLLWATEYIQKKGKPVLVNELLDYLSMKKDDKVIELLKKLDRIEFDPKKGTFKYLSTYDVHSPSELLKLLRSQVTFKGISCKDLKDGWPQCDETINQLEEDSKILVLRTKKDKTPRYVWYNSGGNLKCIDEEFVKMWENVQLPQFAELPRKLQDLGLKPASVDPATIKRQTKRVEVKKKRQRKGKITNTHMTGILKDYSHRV
Kind of assay: cryo-EM structure.

A further assay concerns the target T3, Ssl2 (S. cerevisiae, UniProt Q00578 1-843).
T3 sequence (looked up): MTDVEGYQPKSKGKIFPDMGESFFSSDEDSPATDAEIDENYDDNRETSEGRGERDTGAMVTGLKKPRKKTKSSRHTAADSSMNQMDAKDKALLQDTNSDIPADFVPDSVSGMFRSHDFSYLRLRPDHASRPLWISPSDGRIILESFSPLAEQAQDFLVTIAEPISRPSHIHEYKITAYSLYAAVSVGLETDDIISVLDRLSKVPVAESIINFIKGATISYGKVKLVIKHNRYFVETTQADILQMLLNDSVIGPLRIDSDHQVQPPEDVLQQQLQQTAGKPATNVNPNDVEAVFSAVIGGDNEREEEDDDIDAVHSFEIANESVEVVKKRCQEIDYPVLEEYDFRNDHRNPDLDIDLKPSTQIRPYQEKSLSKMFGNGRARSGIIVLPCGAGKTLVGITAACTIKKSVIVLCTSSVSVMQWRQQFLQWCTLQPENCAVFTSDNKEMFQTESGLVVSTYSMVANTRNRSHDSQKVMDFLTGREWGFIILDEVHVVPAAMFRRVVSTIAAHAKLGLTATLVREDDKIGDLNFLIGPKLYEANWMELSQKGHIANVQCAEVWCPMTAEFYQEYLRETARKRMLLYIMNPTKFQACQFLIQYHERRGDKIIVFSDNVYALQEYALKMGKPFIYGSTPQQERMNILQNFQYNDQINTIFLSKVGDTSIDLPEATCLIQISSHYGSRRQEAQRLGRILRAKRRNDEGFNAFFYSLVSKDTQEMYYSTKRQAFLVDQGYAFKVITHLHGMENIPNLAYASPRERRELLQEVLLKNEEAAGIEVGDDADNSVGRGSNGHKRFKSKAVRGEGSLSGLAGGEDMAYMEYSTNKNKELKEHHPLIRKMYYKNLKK
Kind of assay: cryo-EM structure.

For another assay, the target named is T4, Tfb1 (S. cerevisiae, UniProt P32776 1-642).
T4 sequence (looked up): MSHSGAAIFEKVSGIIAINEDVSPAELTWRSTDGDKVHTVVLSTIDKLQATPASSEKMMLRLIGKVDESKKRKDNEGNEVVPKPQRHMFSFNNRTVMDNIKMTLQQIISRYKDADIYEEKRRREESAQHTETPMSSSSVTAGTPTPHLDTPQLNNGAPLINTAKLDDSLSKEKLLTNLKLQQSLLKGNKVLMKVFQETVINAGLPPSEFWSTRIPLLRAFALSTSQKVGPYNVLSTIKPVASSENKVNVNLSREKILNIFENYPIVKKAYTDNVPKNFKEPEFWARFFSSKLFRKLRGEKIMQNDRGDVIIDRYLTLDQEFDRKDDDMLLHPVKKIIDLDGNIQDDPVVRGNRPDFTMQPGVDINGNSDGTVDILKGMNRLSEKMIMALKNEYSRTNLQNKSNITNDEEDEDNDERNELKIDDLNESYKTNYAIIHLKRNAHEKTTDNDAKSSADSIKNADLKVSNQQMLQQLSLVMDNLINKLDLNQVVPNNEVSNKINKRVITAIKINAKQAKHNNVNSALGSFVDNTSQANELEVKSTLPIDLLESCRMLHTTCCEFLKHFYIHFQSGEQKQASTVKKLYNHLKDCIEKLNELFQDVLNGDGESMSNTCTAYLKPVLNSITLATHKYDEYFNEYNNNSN
Kind of assay: cryo-EM structure.

A further assay has as its target T5, Tfb2 (S. cerevisiae, UniProt Q02939 1-513).
T5 sequence (looked up): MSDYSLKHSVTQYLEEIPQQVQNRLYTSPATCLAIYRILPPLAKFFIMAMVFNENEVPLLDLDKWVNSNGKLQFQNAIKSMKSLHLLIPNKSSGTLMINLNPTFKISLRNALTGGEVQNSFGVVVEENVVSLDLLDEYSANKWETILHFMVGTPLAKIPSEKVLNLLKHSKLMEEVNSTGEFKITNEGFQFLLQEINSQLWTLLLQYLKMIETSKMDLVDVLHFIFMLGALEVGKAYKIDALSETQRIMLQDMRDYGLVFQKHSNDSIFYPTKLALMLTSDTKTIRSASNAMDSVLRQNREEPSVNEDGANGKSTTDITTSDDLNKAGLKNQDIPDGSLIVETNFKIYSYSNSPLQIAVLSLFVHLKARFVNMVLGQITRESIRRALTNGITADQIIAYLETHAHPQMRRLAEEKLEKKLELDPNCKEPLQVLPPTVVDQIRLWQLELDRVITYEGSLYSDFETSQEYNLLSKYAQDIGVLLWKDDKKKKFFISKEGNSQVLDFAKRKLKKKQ
As to the kind of experiment: cross-linking.

In assay [1] the target is B2. Kind of assay: cryo-EM structure.

B1: Rpb7 (Pol II stalk subunit) (natural protein, S. cerevisiae, UniProt P34087 1-171, looked up)
chain: MFFIKDLSLNITLHPSFFGPRMKQYLKTKLLEEVEGSCTGKFGYILCVLDYDNIDIQRGRILPTDGSAEFNVKYRAVVFKPFKGEVVDGTVVSCSQHGFEVQVGPMKVFVTKHLMPQDLTFNAGSNPPSYQSSEDVITIKSRIRVKIEGCISQVSSIHAIGSIKEDYLGAI
Regarding B1, the binding result in the assay with Tfb3 was “binds”. As to B2, the binding result with Med8 is reported as “binds”.

For B3, the binding result with TFIIE (Tfa1 and Tfa2) is given as “binds”.

B4: Tfa1 (TFIIE subunit) (natural protein, S. cerevisiae, UniProt P36100 1-482, looked up)
chain: MDRPIDDIVKNLLKFVVRGFYGGSFVLVLDAILFHSVLAEDDLKQLLSINKTELGPLIARLRSDRLISIHKQREYPPNSKSVERVYYYVKYPHAIDAIKWKVHQVVQRLKDDLDKNSEPNGYMCPICLTKYTQLEAVQLLNFDRTEFLCSLCDEPLVEDDSGKKNKEKQDKLNRLMDQIQPIIDSLKKIDDSRIEENTFEIALARLIPPQNQSHAAYTYNPKKGSTMFRPGDSAPLPNLMGTALGNDSSRRAGANSQATLHINITTASDEVAQRELQERQAEEKRKQNAVPEWHKQSTIGKTALGRLDNEEEFDPVVTASAMDSINPDNEPAQETSYQNNRTLTEQEMEERENEKTLNDYYAALAKKQAKLNKEEEEEEEEEEDEEEEEEEEMEDVMDDNDETARENALEDEFEDVTDTAGTAKTESNTSNDVKQESINDKTEDAVNATATASGPSANAKPNDGDDDDDDDDDEMDIEFEDV
As for B4, the binding result with Ssl2, in the assay with Tfb1 and with Tfb2 was “binds” throughout.

B5: Med22 (natural protein, S. cerevisiae, UniProt P32570 1-121, looked up)
chain: MSNQALYEKLEQTRTILSVKLAELINMTTIADRNDDDEGSFAQENSELAVATTSVMMVNNQTMQLIKNVQDLLILTRSIKEKWLLNQIPVTEHSKVTRFDEKQIEELLDNCIETFVAEKTT
Consider B5, for which the binding result in assay [1] is reported as “binds”.
